Measurements from patent publication US20160200782A1.
One block for each substance: values may come before it.

Tests used:
Assay in all cases: cell-based or functional assay
MAPK2(h) (human) = MAPK2(h) (human) (UniProt P28482)
ULK2(h) (human) = ULK2(h) (human) (UniProt Q8IYT8)
PKCµ(h) (human) = PKCµ(h) (human) (UniProt Q15139)
CHK2(I157T)(h) (human) = CHK2(I157T)(h) (human) (UniProt O96017)
Syk(h) (human) = Syk(h) (human) (UniProt P43405)
c-RAF(h) (human) = c-RAF(h) (human) (UniProt P04049)
IRAK4(h) (human) = IRAK4(h) (human) (UniProt Q9NWZ3)
AMPKa1(h) (human) = AMPKa1(h) (human) (UniProt Q13131)
ErbB4(h) (human) = ErbB4(h) (human) (UniProt Q15303)
Flt4(h) (human) = Flt4(h) (human) (UniProt P35916)
CaMKI(h) (human) = CaMKI(h) (human) (UniProt Q14012)
cSRC(h) (human) = cSRC(h) (human) (UniProt P12931)
Ret(V804M)(h) (human) = Ret(V804M)(h) (human) (UniProt P07949)
ALK(h) (human) = ALK(h) (human) (UniProt Q9UM73)
FGFR2(h) (human) = FGFR2(h) (human) (UniProt P21802)
Ret(V804L)(h) (human) = Ret(V804L)(h) (human) (UniProt P07949)
FAK(h) (human) = FAK(h) (human) (UniProt Q05397)
cKit(h) (human) = cKit(h) (human) (UniProt P10721)
LOK(h) (human) = LOK(h) (human) (UniProt O94804)
GRK6(h) (human) = GRK6(h) (human) (UniProt P43250)
DRAK1(h) (human) = DRAK1(h) (human) (UniProt Q9UEE5)
ACK1(h) (human) = ACK1(h) (human) (UniProt Q07912)
ZIPK(h) (human) = ZIPK(h) (human) (UniProt O43293)
DCAMKL2(h) (human) = DCAMKL2(h) (human) (UniProt Q8N568)
TAO2(h) (human) = TAO2(h) (human) (UniProt Q9UL54)
ARK5(h) (human) = ARK5(h) (human) (UniProt O60285)
Ros(h) (human) = Ros(h) (human) (UniProt P08922)
PKCε(h) (human) = PKCε(h) (human) (UniProt Q02156)
JAK3(h) (human) = JAK3(h) (human) (UniProt P52333)
GCK(h) (human) = GCK(h) (human) (UniProt Q12851)
MSK1(h) (human) = MSK1(h) (human) (UniProt O75582)
IKKβ(h) (human) = IKKβ(h) (human) (UniProt O14920)
STK33(h) (human) = STK33(h) (human) (UniProt Q9BYT3)
Flt3(h) (human) = Flt3(h) (human) (UniProt P36888)
MSK2(h) (human) = MSK2(h) (human) (UniProt O75676)
SAPK2a(T106M)(h) (human) = SAPK2a(T106M)(h) (human) (UniProt Q16539)
PKA(h) (human) = biological target: PKA(h) (human)
CDK3/cyclinE(h) (human) = CDK3/cyclinE(h) (human) (UniProt Q00526)
MLK1(h) (human) = MLK1(h) (human) (UniProt P80192)
TAO1(h) (human) = TAO1(h) (human) (UniProt Q7L7X3)
EphA8(h) (human) = EphA8(h) (human) (UniProt P29322)
Rse(h) (human) = Rse(h) (human) (UniProt Q06418)
CDK5/p35(h) (human) = CDK5/p35(h) (human) (UniProt Q00535)
Met(D1246N)(h) (human) = Met(D1246N)(h) (human) (UniProt P08581)
SRPK2(h) (human) = SRPK2(h) (human) (UniProt P78362)
MST2(h) (human) = MST2(h) (human) (UniProt Q13188)
NEK2(h) (human) = NEK2(h) (human) (UniProt P51955)
Lck(h) (human) = Lck(h) (human) (UniProt P06239)
PAK4(h) (human) = PAK4(h) (human) (UniProt O96013)
HIPK2(h) (human) = HIPK2(h) (human) (UniProt Q9H2X6)
EphA5(h) (human) = EphA5(h) (human) (UniProt P54756)
Fer(h) (human) = Fer(h) (human) (UniProt P16591)
EphB4(h) (human) = EphB4(h) (human) (UniProt P54760)
Aurora-A(h) (human) = Aurora-A(h) (human) (UniProt O14965)
Met(Y1248D)(h) (human) = Met(Y1248D)(h) (human) (UniProt P08581)
CSK(h) (human) = CSK(h) (human) (UniProt P41240)
EphA4(h) (human) = EphA4(h) (human) (UniProt P54764)
EphA4(h) (human), sequence (P54764 570-986 limits assumed): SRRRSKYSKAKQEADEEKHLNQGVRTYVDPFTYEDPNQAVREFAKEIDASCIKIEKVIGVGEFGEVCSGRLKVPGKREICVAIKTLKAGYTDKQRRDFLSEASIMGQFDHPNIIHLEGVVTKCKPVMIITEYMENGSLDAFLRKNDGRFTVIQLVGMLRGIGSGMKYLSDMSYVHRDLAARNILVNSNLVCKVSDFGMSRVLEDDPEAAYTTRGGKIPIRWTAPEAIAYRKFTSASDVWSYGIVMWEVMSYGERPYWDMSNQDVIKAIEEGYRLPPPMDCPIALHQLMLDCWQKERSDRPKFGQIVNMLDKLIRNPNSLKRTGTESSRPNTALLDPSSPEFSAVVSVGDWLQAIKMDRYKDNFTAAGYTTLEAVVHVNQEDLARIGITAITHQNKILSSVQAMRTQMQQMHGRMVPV

CHK2(I157T)(h) (human), sequence (O96017 5-543 I157T limits assumed): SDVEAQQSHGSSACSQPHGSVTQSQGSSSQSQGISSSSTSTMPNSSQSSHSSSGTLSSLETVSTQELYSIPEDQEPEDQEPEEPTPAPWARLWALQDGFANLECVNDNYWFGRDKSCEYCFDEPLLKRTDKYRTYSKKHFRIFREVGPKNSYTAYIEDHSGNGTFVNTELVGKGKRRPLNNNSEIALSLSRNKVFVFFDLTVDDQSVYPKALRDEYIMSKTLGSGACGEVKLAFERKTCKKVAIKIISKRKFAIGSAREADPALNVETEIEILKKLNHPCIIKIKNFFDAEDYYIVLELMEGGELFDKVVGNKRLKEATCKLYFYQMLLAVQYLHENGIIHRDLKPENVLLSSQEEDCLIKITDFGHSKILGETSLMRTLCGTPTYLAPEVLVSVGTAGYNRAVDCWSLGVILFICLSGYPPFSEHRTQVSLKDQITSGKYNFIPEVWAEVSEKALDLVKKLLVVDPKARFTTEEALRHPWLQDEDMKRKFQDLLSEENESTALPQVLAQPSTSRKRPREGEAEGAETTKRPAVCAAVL
CaMKI(h) (human), sequence (Q14012 whole entry): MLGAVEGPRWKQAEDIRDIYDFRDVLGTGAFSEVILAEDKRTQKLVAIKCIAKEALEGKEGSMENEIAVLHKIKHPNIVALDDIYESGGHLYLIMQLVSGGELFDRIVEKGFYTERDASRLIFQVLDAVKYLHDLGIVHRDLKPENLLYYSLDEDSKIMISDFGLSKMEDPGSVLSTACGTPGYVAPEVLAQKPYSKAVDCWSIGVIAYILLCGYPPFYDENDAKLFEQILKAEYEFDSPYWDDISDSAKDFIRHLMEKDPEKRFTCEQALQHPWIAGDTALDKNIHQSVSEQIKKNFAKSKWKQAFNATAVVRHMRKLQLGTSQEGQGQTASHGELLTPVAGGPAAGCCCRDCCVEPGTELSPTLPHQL
CDK3/cyclinE(h) (human), sequence (Q00526 whole entry, chain 1 of 2): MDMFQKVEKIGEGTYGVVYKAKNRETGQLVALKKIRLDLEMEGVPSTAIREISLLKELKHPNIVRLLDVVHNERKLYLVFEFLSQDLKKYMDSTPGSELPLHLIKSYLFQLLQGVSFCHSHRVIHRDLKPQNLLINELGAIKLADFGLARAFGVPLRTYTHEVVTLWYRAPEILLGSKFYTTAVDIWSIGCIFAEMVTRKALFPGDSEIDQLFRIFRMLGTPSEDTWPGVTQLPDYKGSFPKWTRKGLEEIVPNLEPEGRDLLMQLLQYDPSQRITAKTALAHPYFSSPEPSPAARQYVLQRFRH
CDK3/cyclinE(h) (human), sequence (Q00526 whole entry, chain 2 of 2): as the sequence (Q00526 whole entry, chain 1 of 2) above
IKKβ(h) (human), sequence (O14920 whole entry): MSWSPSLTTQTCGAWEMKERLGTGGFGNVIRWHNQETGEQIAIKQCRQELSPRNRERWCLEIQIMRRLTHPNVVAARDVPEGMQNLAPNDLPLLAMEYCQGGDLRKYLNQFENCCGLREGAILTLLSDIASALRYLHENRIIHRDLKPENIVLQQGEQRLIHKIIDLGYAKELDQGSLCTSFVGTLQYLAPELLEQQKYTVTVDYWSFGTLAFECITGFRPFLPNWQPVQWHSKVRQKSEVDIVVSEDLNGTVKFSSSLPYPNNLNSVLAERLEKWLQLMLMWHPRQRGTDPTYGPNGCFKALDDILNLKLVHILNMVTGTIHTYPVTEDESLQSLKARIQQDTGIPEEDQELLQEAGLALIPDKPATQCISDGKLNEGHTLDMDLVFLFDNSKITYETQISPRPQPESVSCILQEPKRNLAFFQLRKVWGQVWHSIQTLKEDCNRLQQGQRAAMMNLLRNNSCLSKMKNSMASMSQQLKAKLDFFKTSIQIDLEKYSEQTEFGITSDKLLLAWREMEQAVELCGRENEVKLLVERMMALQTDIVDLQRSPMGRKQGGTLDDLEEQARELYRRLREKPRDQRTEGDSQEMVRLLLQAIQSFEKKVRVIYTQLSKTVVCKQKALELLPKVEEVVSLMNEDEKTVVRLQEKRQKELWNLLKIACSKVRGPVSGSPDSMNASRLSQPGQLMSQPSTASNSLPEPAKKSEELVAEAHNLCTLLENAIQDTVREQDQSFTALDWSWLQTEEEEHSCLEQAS
MLK1(h) (human), sequence (P80192 132-413 limits assumed): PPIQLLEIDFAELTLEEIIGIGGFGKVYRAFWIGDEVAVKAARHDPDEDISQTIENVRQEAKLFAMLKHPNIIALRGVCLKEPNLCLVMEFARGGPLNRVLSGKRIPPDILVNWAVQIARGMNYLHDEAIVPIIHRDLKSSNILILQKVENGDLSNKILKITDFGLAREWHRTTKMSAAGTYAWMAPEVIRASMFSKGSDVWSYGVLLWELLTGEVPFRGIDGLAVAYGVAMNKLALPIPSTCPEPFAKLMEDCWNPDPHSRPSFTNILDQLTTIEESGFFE
PKCε(h) (human), sequence (Q02156 whole entry): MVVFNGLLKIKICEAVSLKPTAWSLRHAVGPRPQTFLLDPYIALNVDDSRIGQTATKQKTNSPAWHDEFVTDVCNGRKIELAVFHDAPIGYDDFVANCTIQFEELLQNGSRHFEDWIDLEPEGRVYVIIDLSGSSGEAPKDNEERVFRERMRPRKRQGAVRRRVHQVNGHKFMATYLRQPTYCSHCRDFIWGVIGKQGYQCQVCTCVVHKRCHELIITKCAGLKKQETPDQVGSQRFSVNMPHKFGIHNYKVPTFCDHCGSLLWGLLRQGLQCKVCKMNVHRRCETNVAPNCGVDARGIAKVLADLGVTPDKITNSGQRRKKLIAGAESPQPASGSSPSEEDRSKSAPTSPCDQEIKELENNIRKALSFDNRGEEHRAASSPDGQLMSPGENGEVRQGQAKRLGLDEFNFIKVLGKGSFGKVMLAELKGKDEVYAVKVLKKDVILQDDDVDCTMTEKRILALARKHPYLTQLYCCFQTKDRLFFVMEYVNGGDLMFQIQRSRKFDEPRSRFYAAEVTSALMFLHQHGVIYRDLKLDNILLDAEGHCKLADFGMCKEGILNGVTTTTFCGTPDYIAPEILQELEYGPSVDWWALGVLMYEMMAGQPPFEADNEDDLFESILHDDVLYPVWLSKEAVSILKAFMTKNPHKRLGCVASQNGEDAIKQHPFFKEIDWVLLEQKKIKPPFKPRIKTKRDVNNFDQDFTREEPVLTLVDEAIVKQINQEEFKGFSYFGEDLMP
GCK(h) (human), sequence (Q12851 whole entry): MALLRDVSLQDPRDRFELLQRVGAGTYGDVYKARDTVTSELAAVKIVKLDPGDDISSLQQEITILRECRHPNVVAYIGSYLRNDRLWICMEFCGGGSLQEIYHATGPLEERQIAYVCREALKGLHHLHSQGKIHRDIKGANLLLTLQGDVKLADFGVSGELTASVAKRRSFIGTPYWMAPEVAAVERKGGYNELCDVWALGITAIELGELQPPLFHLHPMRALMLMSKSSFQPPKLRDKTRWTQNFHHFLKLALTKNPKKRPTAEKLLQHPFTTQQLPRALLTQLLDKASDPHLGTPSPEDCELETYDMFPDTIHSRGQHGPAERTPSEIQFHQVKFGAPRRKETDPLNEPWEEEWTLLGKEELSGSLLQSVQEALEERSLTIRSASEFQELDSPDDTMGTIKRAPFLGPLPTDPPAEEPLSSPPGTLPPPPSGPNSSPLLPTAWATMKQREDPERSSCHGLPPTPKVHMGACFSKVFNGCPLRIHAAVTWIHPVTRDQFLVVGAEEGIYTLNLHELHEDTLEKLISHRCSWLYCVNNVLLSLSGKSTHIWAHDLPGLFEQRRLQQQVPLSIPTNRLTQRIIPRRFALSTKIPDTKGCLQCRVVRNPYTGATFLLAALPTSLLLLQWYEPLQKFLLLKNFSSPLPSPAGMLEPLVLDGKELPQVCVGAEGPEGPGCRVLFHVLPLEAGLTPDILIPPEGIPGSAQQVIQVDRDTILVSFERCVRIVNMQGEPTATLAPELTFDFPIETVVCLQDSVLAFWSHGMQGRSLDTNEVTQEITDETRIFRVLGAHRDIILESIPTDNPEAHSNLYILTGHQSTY
EphB4(h) (human), sequence (P54760 561-987 limits assumed): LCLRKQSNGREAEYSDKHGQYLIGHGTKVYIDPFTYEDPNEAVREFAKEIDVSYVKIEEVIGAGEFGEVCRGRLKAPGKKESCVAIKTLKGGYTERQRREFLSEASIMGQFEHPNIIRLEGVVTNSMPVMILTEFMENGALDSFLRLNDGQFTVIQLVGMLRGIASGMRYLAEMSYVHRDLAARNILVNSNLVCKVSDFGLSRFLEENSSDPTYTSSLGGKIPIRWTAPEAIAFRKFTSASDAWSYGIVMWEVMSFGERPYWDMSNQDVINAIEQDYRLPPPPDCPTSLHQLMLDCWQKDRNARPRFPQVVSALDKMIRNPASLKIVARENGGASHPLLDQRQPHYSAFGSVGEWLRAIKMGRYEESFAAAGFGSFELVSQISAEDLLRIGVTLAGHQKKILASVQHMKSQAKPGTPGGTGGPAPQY

Substance: MMI-0200 (peptide)
- % activity (MAPK2(h) (human)): 105%
- % activity (ULK2(h) (human)): 132%
- % activity (PKCµ(h) (human)): 73%
- % activity (CHK2(I157T)(h) (human)): 85%
- % activity (Syk(h) (human)): 36%
- % activity (c-RAF(h) (human)): 115%
- % activity (IRAK4(h) (human)): 110%
- % activity (AMPKa1(h) (human)): 108%
- % activity (ErbB4(h) (human)): 82%
- % activity (Flt4(h) (human)): 105%
- % activity (CaMKI(h) (human)): 21%
- % activity (cSRC(h) (human)): 32%
- % activity (Ret(V804M)(h) (human)): 105%
- % activity (ALK(h) (human)): 95%
- % activity (FGFR2(h) (human)): 73%
- % activity (Ret(V804L)(h) (human)): 100%
- % activity (FAK(h) (human)): 110%
- % activity (cKit(h) (human)): 110%
- % activity (LOK(h) (human)): 67%
- % activity (GRK6(h) (human)): 132%
- % activity (DRAK1(h) (human)): 34%
- % activity (ACK1(h) (human)): 97%
- % activity (ZIPK(h) (human)): 67%
- % activity (DCAMKL2(h) (human)): 131%
- % activity (TAO2(h) (human)): 93%
- % activity (ARK5(h) (human)): 93%
- % activity (Ros(h) (human)): 86%
- % activity (PKCε(h) (human)): 98%
- % activity (JAK3(h) (human)): 117%
- % activity (GCK(h) (human)): 99%
- % activity (MSK1(h) (human)): 50%
- % activity (IKKβ(h) (human)): 109%
- % activity (STK33(h) (human)): 98%
- % activity (Flt3(h) (human)): 99%
- % activity (MSK2(h) (human)): 88%
- % activity (SAPK2a(T106M)(h) (human)): 100%
- % activity (PKA(h) (human)): 110%
- % activity (CDK3/cyclinE(h) (human)): 104%
- % activity (MLK1(h) (human)): 84%
- % activity (TAO1(h) (human)): 105%
- % activity (EphA8(h) (human)): 133%
- % activity (Rse(h) (human)): 88%
- % activity (CDK5/p35(h) (human)): 92%
- % activity (Met(D1246N)(h) (human)): 149%
- % activity (SRPK2(h) (human)): 100%
- % activity (MST2(h) (human)): 104%
- % activity (NEK2(h) (human)): 97%
- % activity (Lck(h) (human)): 113%
- % activity (PAK4(h) (human)): 98%
- % activity (HIPK2(h) (human)): 102%
- % activity (EphA5(h) (human)): 123%
- % activity (Fer(h) (human)): 101%
- % activity (EphB4(h) (human)): 131%
- % activity (Aurora-A(h) (human)): 107%
- % activity (Met(Y1248D)(h) (human)): 118%
- % activity (CSK(h) (human)): 33%
- % activity (EphA4(h) (human)): 127%

Substance: MMI-0100 (peptide)
- % activity (MAPK2(h) (human)): 98%
- % activity (ULK2(h) (human)): 123%
- % activity (PKCµ(h) (human)): 79%
- % activity (CHK2(I157T)(h) (human)): 97%
- % activity (Syk(h) (human)): 45%
- % activity (c-RAF(h) (human)): 97%
- % activity (IRAK4(h) (human)): 100%
- % activity (AMPKa1(h) (human)): 107%
- % activity (ErbB4(h) (human)): 73%
- % activity (Flt4(h) (human)): 135%
- % activity (CaMKI(h) (human)): 13%
- % activity (cSRC(h) (human)): 70%
- % activity (Ret(V804M)(h) (human)): 92%
- % activity (ALK(h) (human)): 118%
- % activity (FGFR2(h) (human)): 49%
- % activity (Ret(V804L)(h) (human)): 113%
- % activity (FAK(h) (human)): 98%
- % activity (cKit(h) (human)): 95%
- % activity (LOK(h) (human)): 37%
- % activity (GRK6(h) (human)): 131%
- % activity (DRAK1(h) (human)): 47%
- % activity (ACK1(h) (human)): 106%
- % activity (ZIPK(h) (human)): 80%
- % activity (DCAMKL2(h) (human)): 146%
- % activity (TAO2(h) (human)): 95%
- % activity (ARK5(h) (human)): 108%
- % activity (Ros(h) (human)): 107%
- % activity (PKCε(h) (human)): 102%
- % activity (JAK3(h) (human)): 150%
- % activity (GCK(h) (human)): 98%
- % activity (MSK1(h) (human)): 52%
- % activity (IKKβ(h) (human)): 105%
- % activity (STK33(h) (human)): 99%
- % activity (Flt3(h) (human)): 104%
- % activity (MSK2(h) (human)): 105%
- % activity (SAPK2a(T106M)(h) (human)): 101%
- % activity (PKA(h) (human)): 138%
- % activity (CDK3/cyclinE(h) (human)): 106%
- % activity (MLK1(h) (human)): 77%
- % activity (TAO1(h) (human)): 99%
- % activity (EphA8(h) (human)): 181%
- % activity (Rse(h) (human)): 109%
- % activity (CDK5/p35(h) (human)): 94%
- % activity (Met(D1246N)(h) (human)): 114%
- % activity (SRPK2(h) (human)): 92%
- % activity (MST2(h) (human)): 98%
- % activity (NEK2(h) (human)): 102%
- % activity (Lck(h) (human)): 346%
- % activity (PAK4(h) (human)): 92%
- % activity (HIPK2(h) (human)): 98%
- % activity (EphA5(h) (human)): 110%
- % activity (Fer(h) (human)): 117%
- % activity (EphB4(h) (human)): 62%
- % activity (Aurora-A(h) (human)): 120%
- % activity (Met(Y1248D)(h) (human)): 87%
- % activity (CSK(h) (human)): 70%
- % activity (EphA4(h) (human)): 110%

- % activity (MAPK2(h) (human)): 60%
- % activity (ULK2(h) (human)): 124%
- % activity (PKCµ(h) (human)): 10%
- % activity (CHK2(I157T)(h) (human)): 3%
- % activity (Syk(h) (human)): 5%
- % activity (c-RAF(h) (human)): 19%
- % activity (IRAK4(h) (human)): 3%
- % activity (AMPKa1(h) (human)): 35%
- % activity (ErbB4(h) (human)): 2%
- % activity (Flt4(h) (human)): 73%
- % activity (CaMKI(h) (human)): -1%
- % activity (cSRC(h) (human)): 30%
- % activity (Ret(V804M)(h) (human)): 36%
- % activity (ALK(h) (human)): 12%
- % activity (FGFR2(h) (human)): 12%
- % activity (Ret(V804L)(h) (human)): 20%
- % activity (FAK(h) (human)): 94%
- % activity (cKit(h) (human)): 45%
- % activity (LOK(h) (human)): 7%
- % activity (GRK6(h) (human)): 174%
- % activity (DRAK1(h) (human)): 8%
- % activity (ACK1(h) (human)): 64%
- % activity (ZIPK(h) (human)): 1%
- % activity (DCAMKL2(h) (human)): 56%
- % activity (TAO2(h) (human)): 15%
- % activity (ARK5(h) (human)): 20%
- % activity (Ros(h) (human)): 150%
- % activity (PKCε(h) (human)): 23%
- % activity (JAK3(h) (human)): 95%
- % activity (GCK(h) (human)): 30%
- % activity (MSK1(h) (human)): 8%
- % activity (IKKβ(h) (human)): 71%
- % activity (STK33(h) (human)): 16%
- % activity (Flt3(h) (human)): 17%
- % activity (MSK2(h) (human)): 14%
- % activity (SAPK2a(T106M)(h) (human)): 32%
- % activity (PKA(h) (human)): 118%
- % activity (CDK3/cyclinE(h) (human)): 8%
- % activity (MLK1(h) (human)): 43%
- % activity (TAO1(h) (human)): 24%
- % activity (EphA8(h) (human)): 337%
- % activity (Rse(h) (human)): 63%
- % activity (CDK5/p35(h) (human)): 59%
- % activity (Met(D1246N)(h) (human)): 90%
- % activity (SRPK2(h) (human)): 80%
- % activity (MST2(h) (human)): 2%
- % activity (NEK2(h) (human)): 0%
- % activity (Lck(h) (human)): 359%
- % activity (PAK4(h) (human)): 86%
- % activity (HIPK2(h) (human)): 38%
- % activity (EphA5(h) (human)): 42%
- % activity (Fer(h) (human)): 196%
- % activity (EphB4(h) (human)): 38%
- % activity (Aurora-A(h) (human)): 110%
- % activity (Met(Y1248D)(h) (human)): 218%
- % activity (CSK(h) (human)): 2%
- % activity (EphA4(h) (human)): 48%
Substance: MMI-0500 (peptide)
